# Source: patent US20250382359A1 (BYOMASS, published 2025)
# T1: GDF15 (ligand used in the GFRAL/RET cell assays) (UniProt Q99988 197-308, limits assumed)
# T1 sequence (looked up): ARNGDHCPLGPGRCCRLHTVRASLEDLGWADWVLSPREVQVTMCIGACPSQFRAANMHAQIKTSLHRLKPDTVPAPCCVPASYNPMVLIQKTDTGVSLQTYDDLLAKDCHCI
# T2: GDF10 (UniProt P55107 369-478)
# T2 sequence (looked up): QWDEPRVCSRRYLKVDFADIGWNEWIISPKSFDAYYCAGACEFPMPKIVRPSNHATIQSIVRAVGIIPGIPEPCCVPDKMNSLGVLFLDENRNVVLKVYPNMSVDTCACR
# T3: Human Activin A Fc (human, UniProt P08476 311-426)
# T3 construct: not shown: Fc part
# T3 sequence (looked up): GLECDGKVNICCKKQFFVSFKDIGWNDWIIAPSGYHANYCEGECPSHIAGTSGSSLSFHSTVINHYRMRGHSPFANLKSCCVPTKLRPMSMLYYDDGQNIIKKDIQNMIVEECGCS
# T4: Human Activin B (human, UniProt P09529 293-407)
# T4 sequence (looked up): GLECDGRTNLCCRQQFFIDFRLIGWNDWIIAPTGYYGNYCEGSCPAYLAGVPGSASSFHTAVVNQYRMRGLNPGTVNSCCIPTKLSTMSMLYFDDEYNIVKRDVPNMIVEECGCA
# T5: Human BMP9 (human, UniProt Q9UK05 320-429)
# T5 sequence (looked up): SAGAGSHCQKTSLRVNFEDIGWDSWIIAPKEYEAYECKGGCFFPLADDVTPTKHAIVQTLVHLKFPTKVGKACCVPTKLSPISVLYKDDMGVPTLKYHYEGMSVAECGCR
# T6: Human BMP10 (human, UniProt O95393 317-424)
# T6 sequence (looked up): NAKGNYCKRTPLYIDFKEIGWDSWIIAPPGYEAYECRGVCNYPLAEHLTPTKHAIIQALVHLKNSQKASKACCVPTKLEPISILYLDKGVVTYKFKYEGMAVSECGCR
# T7: Human GDF15 Fc (human, UniProt Q99988 195-308, limits assumed, biotinylated (EZ-Link Sulfo-NHS-Biotinylation Kit) in the SPR assay)
# T7 construct: also called human GDF15-Fc fusion; biotinylated Human GDF15 Fc; not shown: Fc part
# T7 sequence: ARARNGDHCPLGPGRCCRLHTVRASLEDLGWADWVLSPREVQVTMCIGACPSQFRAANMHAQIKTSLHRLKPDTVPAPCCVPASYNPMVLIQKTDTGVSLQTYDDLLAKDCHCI
# T8: GDNF (UniProt P39905 78-211)
# T8 sequence (looked up): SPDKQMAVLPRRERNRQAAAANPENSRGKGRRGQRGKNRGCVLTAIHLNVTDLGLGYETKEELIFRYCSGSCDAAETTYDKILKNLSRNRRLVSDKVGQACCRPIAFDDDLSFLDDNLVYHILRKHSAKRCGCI
# What was measured:
# [1] = target: T1, GDF15 (ligand used in the GFRAL/RET …); test: cell-based or functional assay
# GDF8 = GDF8 (UniProt O14793 267-375); test: BLI Octet; IgG on sensor
# GDF10 = target: T2, GDF10; test: BLI Octet; IgG on sensor
# GDF11 = target: T9, GDF11 (UniProt O95390 299-407); test: BLI Octet; IgG on sensor
# T9 construct: Also used as ligand in the Activin 2B receptor/SMAD reporter assay
# T9 sequence (O95390 299-407 limits assumed): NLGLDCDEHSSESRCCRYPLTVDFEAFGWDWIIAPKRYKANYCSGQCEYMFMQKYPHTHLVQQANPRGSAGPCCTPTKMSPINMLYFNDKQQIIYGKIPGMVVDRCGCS
# Human Activin A Fc [2] = target: T3, Human Activin A Fc; test: BLI Octet; IgG on sensor
# Human Activin B [3] = target: T4, Human Activin B; test: BLI Octet; IgG on sensor
# Human BMP9 [4] = target: T5, Human BMP9; test: BLI Octet; IgG on sensor
# Human BMP10 [5] = target: T6, Human BMP10; test: BLI Octet; IgG on sensor
# Human GDF15 Fc = target: T7, Human GDF15 Fc; test: BLI Octet; IgG on sensor, 100 nM antigen (avid)
# Method: Briefly, ForteBio affinity measurements were performed by loading IgGs on-line onto AHC sensors. Sensors were equilibrated off-line in assay buffer for 30 min and then monitored on-line for 60 seconds for baseline establishment. Sensors with loaded IgGs were exposed to 100 nM antigen for 3 minutes, and afterwards were transferred to assay buffer for 3 min for off-rate measurement. All kinetics were analyzed using the 1:1 binding model.
# GDNF [6] = target: T8, GDNF; test: BLI Octet; IgG on sensor, 100 nM antigen (avid)
# GDNF [7] = target: T8, GDNF; test: BLI Octet; IgG on sensor
# Human Activin B [8] = target: T4, Human Activin B; test: BLI Octet; IgG on sensor, 100 nM antigen (avid)
# Human BMP9 [9] = target: T5, Human BMP9; test: BLI Octet; IgG on sensor, 100 nM antigen (avid)
# Human Activin A Fc [10] = target: T3, Human Activin A Fc; test: BLI Octet; IgG on sensor, 100 nM antigen (avid)
# Human BMP10 [11] = target: T6, Human BMP10; test: BLI Octet; IgG on sensor, 100 nM antigen (avid)
GDF15-GFRAL RET pERK IC50 (pM) [1],GDF15-GFRAL-RET Luciferase IC50 (pM) [1],binding result (GDF8),binding result (GDF10),binding result (GDF11),binding result (Human Activin A Fc [2]),binding result (Human Activin B [3]),binding result (Human BMP9 [4]),binding result (Human BMP10 [5]),Kd (Human GDF15 Fc),Kd (GDNF [6]),binding result (GDNF [7]),Kd (Human Activin B [8]),binding result (Human BMP9 [9]),Kd (Human Activin A Fc [10]),binding result (Human BMP10 [11]),Binder
187 pM,813 pM,no binding (tested: 100 nM),no binding (tested: 100 nM),no binding (tested: 100 nM),no binding (tested: 100 nM),no binding (tested: 100 nM),no binding (tested: 100 nM),no binding (tested: 100 nM),0.271 nM,333 nM,,,,,,"GDF15 antibody agent Clone K, IgG (antibody, V domains shown) VH: QVQLVQSGAEVKKPGASVKVSCKASGYTFTNEGISWVRQAPGQGLEWMGWISAYTADTFYAQKLQGRVTMTTDTSTSTAYMELRSLRSDDTAVYYCARTRHDTSGLRFDYWGQGTLVTVSS VL: DIQMTQSPSSVSASVGDRVTITCRASQGIDSWLAWYQQKPGKAPKLLIYAASSLQSGVPSRFSGSGSGTDFTLTISSLQPEDFATYYCQQVHSFPITFGGGTKVEIKR"
13.5 pM,274 pM,no binding (tested: 100 nM),no binding (tested: 100 nM),no binding (tested: 100 nM),no binding (tested: 100 nM),no binding (tested: 100 nM),no binding (tested: 100 nM),no binding (tested: 100 nM),0.325 nM,229 nM,,,,,,"GDF15 antibody agent Clone L, IgG (antibody, V domains shown) VH: QVQLVQSGAEVKKPGASVKVSCKASGYTFASYDIIWVRQAPGQGLEWMGWISALSGDTVYAQKLQGRVTMTTDTSTSTAYMELRSLRSDDTAVYYCARTRHDTSGIRFDYWGQGTLVTVSS VL: DIQMTQSPSSVSASVGDRVTITCRASQGIDSWLAWYQQKPGKAPKLLIYAASSLQSGVPSRFSGSGSGTDFTLTISSLQPEDFATYYCQQVHSFPITFGGGTKVEIKR"
88.7 pM,,no binding (tested: 100 nM),no binding (tested: 100 nM),no binding (tested: 100 nM),no binding (tested: 100 nM),no binding (tested: 100 nM),no binding (tested: 100 nM),no binding (tested: 100 nM),0.317 nM,31.4 nM,,,,,,"GDF15 antibody agent Clone M, IgG (antibody, V domains shown) VH: QVQLVQSGAEVKKPGASVKVSCKASGYTFDSYGINWVRQAPGQGLEWMGWISAYSGDTAYAQELQGRVTMTTDTSTSTAYMELRSLRSDDTAVYYCVRDTQYGGSPYWGQGTLVTVSS VL: not shown"
99.7 pM,,no binding (tested: 100 nM),no binding (tested: 100 nM),no binding (tested: 100 nM),no binding (tested: 100 nM),no binding (tested: 100 nM),no binding (tested: 100 nM),no binding (tested: 100 nM),0.336 nM,2.56 nM,,,,,,"GDF15 antibody agent Clone N, IgG (antibody, V domains shown) VH: QVQLVQSGAEVKKPGASVKVSCKASGYTFTDYGIFWVRQAPGQGLEWMGWITAYSGDTHYAQKLQGRVTMTTDTSTSTAYMELRSLRSDDTAVYYCVRDTQYGGSPYWGQGTLVTVSS VL: not shown"
104 pM,66.2 pM,no binding (tested: 100 nM),no binding (tested: 100 nM),no binding (tested: 100 nM),,,,,0.26 nM,,no binding (tested: 100 nM),145 nM,binds,,,"GDF15 antibody agent Clone B, IgG (antibody, V domains shown) VH: QVQLQESGPGLVKPSQTLSLTCTVSGGSISSGGIYWTWIRQHPGKGLEWIGAIAYSGSTYYNPSLKSRVTISVDTSKNQFSLKLSSVTAADTAVYYCARGIEYQHFDYWGQGTLVTVSS VL: not shown"
50.4 pM,58.7 pM,no binding (tested: 100 nM),,no binding (tested: 100 nM),,no binding (tested: 100 nM),,no binding (tested: 100 nM),0.263 nM,,no binding (tested: 100 nM),,binds,7.87 nM,,"GDF15 antibody agent Clone D, IgG (antibody, V domains shown) VH: QVQLQESGPGLVKPSQTLSLTCTVSGGSINSGGYYWTWIRQHPGKGLEWIGAIYYSGSTVYNPSLKSRVTISVDTSKNQFSLKLSSVTAADTAVYYCARGVEYQHFNEWGQGTLVTVSS VL: not shown"
102 pM,75 pM,no binding (tested: 100 nM),,no binding (tested: 100 nM),,no binding (tested: 100 nM),,,0.263 nM,,no binding (tested: 100 nM),,binds,7.34 nM,binds,"GDF15 antibody agent Clone A, IgG (antibody, V domains shown) VH: QVQLQESGPGLVKPSQTLSLTCTVSGGSITSGGSYWSWIRQHPGKGLEWIGAIVYSGSTYYNPSLKSRVTISVDTSKNQFSLKLSSVTAADTAVYYCARGVEYQHFDYWGQGTLVTVSS VL: not shown"
,,no binding (tested: 100 nM),no binding (tested: 100 nM),no binding (tested: 100 nM),,,,no binding (tested: 100 nM),,,no binding (tested: 100 nM),172 nM,binds,,,"GDF15 antibody agent Clone Q, IgG (antibody, V domains shown) VH: QVQLQESGPGLVKPSQTLSLTCTVSGGSISSGGIYWTWIRQHPGKGLEWIGAIAYSGSTYYNPSLKSRVTISVDTSKNQFSLKLSSVTAADTAVYYCARGIEYQHFDYWGQGTLVTVSS VL: not shown"
145 pM,39.6 pM,no binding (tested: 100 nM),,no binding (tested: 100 nM),,,,no binding (tested: 100 nM),0.254 nM,,no binding (tested: 100 nM),132 nM,binds,6.48 nM,,"GDF15 antibody agent Clone C, IgG (antibody, V domains shown) VH: QVQLQESGPGLVKPSQTLSLTCTVSGGSISSGGYYWSWIRQHPGKGLEWIGAIVYSGHTYYNPSLKSRVTISVDTSKNQFSLKLSSVTAADTAVYYCARGVEYQHFSLWGQGTLVTVSS VL: not shown"
